Read-outs that look alike come from different tables or passages of the source. No end group written: not given here. fluorescein = fluorescein fluorophore covalently attached to the cysteine residue
Columns and labels:
[1] = target: fluorescein-labeled P5 peptide (F-P5) (chicken); test: fluorescence polarisation
[2] = target: fluorescein-labeled Isu1 peptide (F-Isu1) (S. cerevisiae); test: fluorescence polarisation
[3] = target: fluorescein-labeled P5 peptide (F-P5) (chicken); test: fluorescence polarisation; remark: listed apart in the source
[4] = target: T1, Ssc1 (mitochondrial heat shock protein 70 of Saccharomyces cerevisiae) (S. cerevisiae, UniProt P0CS90 24-654); test: fluorescence polarisation
[5] = target: T1, Ssc1 (mitochondrial heat shock protein …); test: fluorescence polarisation; remark: listed apart in the source
[6] = target: T1, Ssc1 (mitochondrial heat shock protein …); test: fluorescence polarisation; remark: listed apart in the source
[7] = target: T2, substrate-binding domain of Ssc1, Ssc1(418–654) (S. cerevisiae, UniProt P0CS90 418-654); test: fluorescence polarisation
T2 sequence (looked up): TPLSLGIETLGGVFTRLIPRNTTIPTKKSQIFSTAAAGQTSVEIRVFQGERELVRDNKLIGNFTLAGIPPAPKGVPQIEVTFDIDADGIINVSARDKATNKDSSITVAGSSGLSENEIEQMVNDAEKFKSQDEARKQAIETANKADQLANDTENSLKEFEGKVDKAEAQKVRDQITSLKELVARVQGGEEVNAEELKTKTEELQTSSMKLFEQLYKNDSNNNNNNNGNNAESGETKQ

[8] = target: T1, Ssc1 (mitochondrial heat shock protein …); test: fluorescence polarisation; remark: listed apart in the source
[9] = target: T1, Ssc1 (mitochondrial heat shock protein …); test: pull-down

Ssc3 (mitochondrial Hsp70 paralog of Saccharomyces cerevisiae) (natural protein)
Kd [1]: 30.1 µM
koff [1]: 0.244 s⁻¹
Kd [2]: > 90 µM
Kd [3]: 26.3 µM

SBD_(Ssc1)-(ABCD)_(Ssc3) chimera (variable domain of the SBD of Ssc1 replaced with that of Ssc3) (domain or fragment)
Kd [1]: 22.7 µM

LSLPPVKLHC(fluorescein) [fluorescein-labeled Isu1 peptide (F-Isu1)]
Kd [4]: 7.07 ± 0.872 µM

CALLLSAPRR (fluorescein fluorophore covalently attached to the cysteine residue) [fluorescein-labeled P5 peptide (F-P5)]
Kd [5]: 0.231 ± 0.014 µM
Kd [6]: 30.9 ± 2.6 µM
Kd [7]: 0.264 ± 0.041 µM
koff [8]: 0.003 s⁻¹

B1: GST-Hep1 (yeast Hep1 co-chaperone) (natural protein, yeast (S. cerevisiae), UniProt P42844 48-174, looked up)
chain: NEVKKDDKKVHLGSFKVDKPKMMIAFTCKKCNTRSSHTMSKQAYEKGTVLISCPHCKVRHLIADHLKIFHDHHVTVEQLMKANGEQVSQDVGDLEFEDIPDSLKDVLGKYAKNNSENASQLPHPSQK
Kd [9]: ~1.5 µM
